According to patent US20210380680A1 (ZLLP, published 2021):
Where two headings read alike, the source gives them in different places.

Assays:
[1] = molecular target: T1, human Claudin 18.2 (CLDN18.2) (human, UniProt P56856-2 1-261); test: FACS on CHO-CLDN18.2 cells
T1 construct: whole, on cells; recombinantly expressed on CHO, HEK293, NCI-N87, NUGC4 or PANC-1 cells; also called CHO-CLDN18.2
Procedure: Binding curves were generated to rank the binding affinities of hybridoma antibodies. Briefly, a total of 1×10⁵ CHO-CLDN18.2 cells for each well were seeded in 96-well plate and washed by FACS buffer (DPBS containing 2% FBS) twice. Cells were incubated by series diluted purified hybridoma antibodies for 1 h. After primary antibody incubation, cells were washed by FACS buffer for two times. […] FlowJo software was used for analysis. Data was plotted as the logarithm of antibody concentration versus mean fluorescence signals. Nonlinear regression analysis was performed by GraphPad Prism 6 (GraphPad Software) and EC50 values were calculated.

[2] = molecular target: T1, human Claudin 18.2 (CLDN18.2); test: FACS on CHO-CLDN18.2 cells; remark: listed apart in the source
[3] = molecular target: T1, human Claudin 18.2 (CLDN18.2); test: FACS on CHO-18.2 cells @30 ug/ml
[4] = molecular target: T2, CLDN18.2 endogenously expressed on SNU601 gastric cancer cells (UniProt P56856-2 1-261); test: FACS on SNU601 cells
T2 construct: whole, on cells

[5] = molecular target: T3, CLDN18.2 endogenously expressed on SNU620 gastric cancer cells (UniProt P56856-2 1-261, limits assumed); test: FACS on SNU620 cells
T3 construct: whole, on cells; also called SU620

[6] = molecular target: T1, human Claudin 18.2 (CLDN18.2); test: FACS on CHO-CLDN18.2 cells; remark: listed apart in the source
[7] = molecular target: T1, human Claudin 18.2 (CLDN18.2); test: cell-based or functional assay
[8] = molecular target: T1, human Claudin 18.2 (CLDN18.2); test: cell-based or functional assay; remark: listed apart in the source
[9] = molecular target: T1, human Claudin 18.2 (CLDN18.2); test: cell-based or functional assay; remark: listed apart in the source
[10] = molecular target: T1, human Claudin 18.2 (CLDN18.2); test: cell-based or functional assay; remark: listed apart in the source
[11] = molecular target: T1, human Claudin 18.2 (CLDN18.2); test: cell-based or functional assay; remark: listed apart in the source

B1: Ms175D10 (antibody, V domains shown)
VH: QVQLQQPGAELVRPGASVKLSCKASGYTFTSYWINWVKQRPGQGLEWIGNIYPSDSYTNYNQKFKDKATLTVDKSSSTAYMQLSSPTSEDSAVYYCTRSWRGNSFDYWGQGTTLTVSS
VL: DIVMTQSPSSLTVTAGEKVTMSCKSSQSLLNSGNQKNYLTWYQQKPGQPPKLLIYWASTRESGVPDRFTGSGSGTDFTLTISSVQAEDLAVYYCQNDYSYPFTFGSGTKLEIK
EC50 [1]: 3.68 nM

B2: chimeric 282A12F3 (xi282A12F3) (antibody, human IgG1, kappa, V domains shown)
VH: QVQLKESGPVLVQPSQTLSLTCTVAGFSLTSYNVYWVRQPPGKGLEWMGVIWNTGATRYNSTLKSRLSISKDTSKSQVFLKMNSLQTEDTATYYCARDSAMPAIPFAYWGQGTLVTVSS
VL: DIVMTQSPSSLAVSAGETVTINCKSSQSLFGSVRQKNYLAWYQQKPGQSPKLLIYLASTRESGVPDRFIGSGSGTDFTLTISSVQAEDLAKYYCQQYYDIPWTFGGGTKLELKR
notes: chimeric human IgG1
binding result [2]: binds

B3: 282A12F3 (rat hybridoma antibody) (antibody, V domains shown)
VH: B2 VH
VL: DIVMTQSPSSLAVSAGETVTINCKSSQSLFGSVRQKNYLAWYQQKPGQSPKLLIYLASTRESGVPDRFIGSGSGTDFTLTISSVQAEDLAKYYCQQYYDIPWTFGGGTKLELK
notes: purified rat IgG from hybridoma
binding result [3]: binds | binding result [4]: binds

B4: chimeric 357B8F8 (antibody, human IgG1, kappa, V domains shown)
VH: QVQLKESGPGLVAPSQSLSITCTVSGFSLTSYGVHWVRQPPGKGLEWLGVIWPGGNTNYNSALMSRLSISKDNSKSQVFLKMNSLQTDDTAMYYCARDRRLAMDYWGQGTSVTVSS
VL: DIVMTQSPSSLTVTAGEKVTMTCKSSQSLLNSGNQKNYLTWYQQKPGQPPKLLIYWASTRESGVPDRFTGSGSGTDFTLTISILQAEDLAVYYCQNDYSYPFTFGSGTKLEIKR
notes: chimeric human IgG1
binding result [5]: no binding

B5: 413H9F8-cp2 (antibody, V domains shown)
VH: DVQLVESGGGLVQPGGSLRLSCAASGFTFSSFGMHWVRQAPGKGLEWVAYISSGSSPIYYVDKLKGRFTISRDNAKNSLYLQMNSLRAEDTAVYYCARAGYAVRNALDYWGQGTLVTVSS
VL: EIVMTQSPPTLSLSPGERVTLSCKSSQSLLNVGNQKNYLAWYQQKPGQAPRLLIYGASTRESGIPARFSGSGSGTDFTLTISSLQPEDFAVYYCQNDLFYPLTFGGGTKVEIK
notes: humanized IgG; constant regions not specified
EC50 [6]: 1.99 nM | ADCC EC50, CHO-CLDN18.2, FcR-TANK [7]: 0.008 nM | % ADCC @ 6.67 nM, NCI-N87-CLDN18.2, FcR-TANK [8]: 13.2% | ADCC EC50, NCI-N87-CLDN18.2, FcR-TANK [8]: 0.24 nM | ADCC EC50, NUGC4-CLDN18.2, PBMC [9]: 0.0492 nM | % specific cytotoxicity @ 6.67 nM, NUGC4-CLDN18.2, PBMC [10]: 32% | ADCC EC50, NUGC4-CLDN18.2, PBMC [10]: 5.3 nM | CDC EC50, human serum, CHO-CLDN18.2 [11]: 1.13 nM

B6: 413H9F8-cp2-MG-DL (antibody, V domains shown)
VH: B5 VH
VL: B5 VL
ADCC EC50, CHO-CLDN18.2, FcR-TANK [7]: 0.0024 nM | ADCC EC50, NUGC4-CLDN18.2, PBMC [9]: 0.0175 nM

B7: 413H9F8-cp2-V2-DL (antibody, V domains shown)
VH: B5 VH
VL: B5 VL
ADCC EC50, CHO-CLDN18.2, FcR-TANK [7]: 0.001 nM | ADCC EC50, NUGC4-CLDN18.2, PBMC [9]: 0.0146 nM
